Patent US20220000983A1 (UNITED STATES GOVERNMENT AS REPRESENTED BY THE DEPARTMENT …, published 2022)
Starred links: 1 amine or outer side, 2 acyl side, 3 side chain; linkers in the order of their positions; H or OH if unused. Non-standard residues stand in square brackets, D forms with d. No end group written: not given here. *: point of attachment. Tyr(Me) = O-methyltyrosine, COc1ccc(C[C@H](N[*:1])C(=O)[*:2])cc1; Phenylacetyl(2,3,4,5,6-F5) = O=C(Cc1c(F)c(F)c(F)c(F)c1F)*; Phe(F5) = N[C@@H](Cc1c(F)c(F)c(F)c(F)c1F)C(=O)O; Phe(4-Cl) = N[C@@H](Cc1ccc(Cl)cc1)C(=O)O; hArg = N=C(N)NCCCC[C@H](N)C(=O)O; Nle = CCCC[C@H](N)C(=O)O; Orn = NCCC[C@H](N)C(=O)O; Abu = CC[C@H](N)C(=O)O; Ada = not defined here; Amp = not defined here; Cpa = not defined here; PhAc = O=C(Cc1ccccc1)*; Aoc = NCCCCCCCC(=O)O

T1: GHRH receptor on rat pituitary cells (rat, UniProt Q02644 23-464)
T1 sequence (looked up): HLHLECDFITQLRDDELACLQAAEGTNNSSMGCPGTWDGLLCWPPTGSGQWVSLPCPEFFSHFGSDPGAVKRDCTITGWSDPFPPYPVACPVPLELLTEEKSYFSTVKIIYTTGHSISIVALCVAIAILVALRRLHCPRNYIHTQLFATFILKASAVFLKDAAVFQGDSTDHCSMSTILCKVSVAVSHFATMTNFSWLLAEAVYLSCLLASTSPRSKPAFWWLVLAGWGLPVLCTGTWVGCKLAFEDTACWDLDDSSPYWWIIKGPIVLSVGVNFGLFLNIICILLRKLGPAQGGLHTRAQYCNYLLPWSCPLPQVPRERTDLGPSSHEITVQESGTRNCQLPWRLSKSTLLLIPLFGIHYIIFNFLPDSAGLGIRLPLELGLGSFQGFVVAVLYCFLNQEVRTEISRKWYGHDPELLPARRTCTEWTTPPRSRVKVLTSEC

T2: GHRH receptor (membrane GHRH-receptors on human anterior pituitary cells) (human, UniProt Q02643 23-423)
T2 construct: whole, on cells; Native receptor in membrane fractions prepared from bought human pituitary (National Hormone and Peptide Program), not a recombinant construct; also called pituitary type GHRH-receptor; pGHRH-R
T2 sequence (looked up): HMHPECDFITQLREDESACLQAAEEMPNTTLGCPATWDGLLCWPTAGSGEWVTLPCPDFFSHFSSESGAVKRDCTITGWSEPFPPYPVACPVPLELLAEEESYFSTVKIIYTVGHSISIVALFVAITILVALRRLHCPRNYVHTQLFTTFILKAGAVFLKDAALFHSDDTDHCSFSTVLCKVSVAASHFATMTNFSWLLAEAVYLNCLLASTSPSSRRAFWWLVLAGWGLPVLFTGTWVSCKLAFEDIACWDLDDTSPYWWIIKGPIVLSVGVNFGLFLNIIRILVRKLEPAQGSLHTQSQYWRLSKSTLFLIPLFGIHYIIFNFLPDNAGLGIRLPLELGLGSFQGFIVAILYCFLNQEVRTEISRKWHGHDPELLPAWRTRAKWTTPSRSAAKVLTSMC


Tests used:
[1] = target: T1, GHRH receptor on rat pituitary cells; test: cell-based or functional assay
[2] = target: GHRH receptor (membrane GHRH-receptors on human anterior pituitary cells) (human) (UniProt Q02643); test: competitive radioligand binding; displacement of 125I-[His1,Nle27]-hGH-RH(1-32)NH2 (0.2 nM) from human pituitary membrane fractions
[3] = target: T2, GHRH receptor (membrane GHRH-receptors …); test: as above
Procedure: Receptor binding affinities in vitro. Preparation of human pituitary membrane fractions and receptor binding of analogs of GH-RH were performed (Halmos G, Rekasi Z, Szoke B, Schally A V. (1993) Receptor 3:87-97). Human pituitary was purchased from the National Hormone and Peptide Program. […] The values were calculated from technical duplicate tubes.
Nineteen new AVR analogs of GHRH were tested in the receptor binding assay. Table 6 presents the IC₅₀ values of GHRH antagonists to membrane GHRH-receptors binding on human anterior pituitary cells.

Molecule | IC50 [3] | Relative GH release [1] | also measured
AVR-540 (peptide) | – | – | Relative GH release (relative to control (1.00)) [1]: 0.88
AVR-332 (peptide) | – | – | IC50 [2]: 340 pM
MIA-602 (peptide) | – | – | Relative GH release (relative to control (1.00)) [1]: 0.78; IC50 [2]: 270 pM
{PhAc-Ada}-Y[dR]DAI[Cpa]TAR[Amp]RKVL[Abu]QLSAH[Orn]LLQDI[Nle][dR][hArg]-NHMe (reading uncertain, Synthetic GHRH antagonist) [AVR-201] | 610 pM | – | –
{Phenylacetyl(2,3,4,5,6-F5)-Ada}-Y[dR]DAI[Phe(4-Cl)]TN[hArg][Tyr(Me)]RKVL[Abu]QLSARKLLQDI[Nle][dR][hArg]-{Ada-NH2} (reading uncertain, Synthetic GHRH antagonist) [AVR-333] | 300 pM | 0.88 relative to control (1.00) | –
{Phenylacetyl(2,3,4,5,6-F5)-Ada}-Y[dR]DAI[Phe(4-Cl)]TN[hArg][Tyr(Me)]RKVL[Abu]QLSARKLLQDI[Nle][dR][hArg]-{Aoc-NHMe} (reading uncertain, Synthetic GHRH antagonist) [AVR-322] | 250 pM | – | –
{Phenylacetyl(2,3,4,5,6-F5)-Ada}-Y[dR]DAI[Phe(4-Cl)]TA[hArg][Phe(F5)]RKVL[Abu]QLSARKLLQDI[Nle][dR][hArg]-{Ada-NH2} (reading uncertain, Synthetic GHRH antagonist) [AVR-353] | 110 pM | 0.65 relative to control (1.00) | –
{Phenylacetyl(2,3,4,5,6-F5)-Ada}-Y[dR]DAI[Phe(F5)]TA[hArg][Tyr(Me)]H[Orn]VL[Abu]QLSAH[Orn]LLQDI[Nle][dR][hArg]-{Ada-NH2} (reading uncertain, Synthetic GHRH antagonist) [AVR-553] | 150 pM | 0.82 relative to control (1.00) | –
{Phenylacetyl(2,3,4,5,6-F5)-Ada}-Y[dR]DAI[Cpa]TA[hArg][Phe(F5)]H[Orn]VL[Abu]QLSAH[Orn]LLQDI[Nle][dR][hArg]-{Ada-NH2} (reading uncertain, Synthetic GHRH antagonist) [AVR-552] | 170 pM | – | –
{Phenylacetyl(2,3,4,5,6-F5)-Ada}-Y[dR]DAI[Cpa]TA[hArg][Phe(F5)]H[Orn]VL[Abu]QLSAH[Orn]LLQDI[Nle][dR][hArg]-NHMe (reading uncertain) [AVR-542] | 210 pM | – | –
{PhAc-Ada}-Y[dR]DAI[Phe(4-Cl)]TAR[Tyr(Me)]RKVL[Abu]QLSAH[Orn]LLQDI[Nle][dR][hArg]-NH2 (reading uncertain, Synthetic GHRH antagonist) [AVR-104] | 590 pM | – | –
{Phenylacetyl(2,3,4,5,6-F5)-Ada}-Y[dR]DAI[Cpa]TA[hArg][Phe(F5)]H[Orn]VL[Abu]QLSAH[Orn]LLQDI[Nle][dR][hArg]-{Ada-NHMe} (reading uncertain, Synthetic GHRH antagonist) [AVR-543] | 250 pM | 1.1 relative to control (1.00) | –
{Phenylacetyl(2,3,4,5,6-F5)-Ada}-Y[dR]DAI[Phe(F5)]TA[hArg][Tyr(Me)]RKVL[Abu]QLSARKLLQDI[Nle][dR]-NHMe (reading uncertain) [AVR-235] | 490 pM | 0.6 relative to control (1.00) | –
{PhAc-Ada}-Y[dR]DAI[Phe(4-Cl)]TNR[Tyr(Me)]RKVL[Abu]QLSARKLLQDI[Nle][dR][hArg]-NHMe (reading uncertain, Synthetic GHRH antagonist) [AVR-234] | 450 pM | – | –
{Phenylacetyl(2,3,4,5,6-F5)-Ada}-Y[dR]DAI[Phe(4-Cl)]TA[hArg][Phe(F5)]RKVL[Abu]QLSARKLLQDI[Nle][dR][hArg] (not fully specified (C-terminus); reading uncertain) [AVR-354] | 140 pM | 0.9 relative to control (1.00) | –
{PhAc-Ada}-Y[dR]DAI[Phe(4-Cl)]TN[hArg][Tyr(Me)]RKVL[Abu]QLSARKLLQDI[Nle][dR][hArg]-{Aoc-NHMe} (reading uncertain, Synthetic GHRH antagonist) [AVR-321] | 230 pM | – | –
{Phenylacetyl(2,3,4,5,6-F5)-Ada}-Y[dR]DAI[Phe(F5)]TA[hArg][Tyr(Me)]RKVL[Abu]QLSARKLLQDI[Nle][dR][hArg]-{Ada-NH2} (not fully specified; reading uncertain) [AVR-352] | 90 pM | 0.72 relative to control (1.00) | –
{PhAc-Ada}-Y[dR]DAI[Cpa]TARYRKVL[Abu]QLSARKLLQDI[Nle][dR][hArg]-NH2 (reading uncertain, Synthetic GHRH antagonist) [AVR-107] | 610 pM | – | –
{PhAc-Ada}-Y[dR]DAI[Phe(4-Cl)]TAR[Phe(F5)]RKVL[Abu]QLSAH[Orn]LLQDI[Nle][dR][hArg]-NH2 (reading uncertain, Synthetic GHRH antagonist) [AVR-116] | 500 pM | – | –
{dF-Ada}-Y[dR]DAI[Phe(4-Cl)]TAR[Tyr(Me)]RKVL[Abu]QLSAH[Orn]LLQDI[Nle][dR][hArg]-NH2 (reading uncertain, Synthetic GHRH antagonist) [AVR-120] | 480 pM | – | –
{Phenylacetyl(2,3,4,5,6-F5)-Ada}-Y[dR]DAI[Cpa]TNR[Tyr(Me)]RKVL[Abu]QLSAH[Orn]LLQDI[Nle][dR][hArg]-{Ada-NH2} (reading uncertain, Synthetic GHRH antagonist) [AVR-620] | 310 pM | – | –
{PhAc-Ada}-Y[dR]DAI[Cpa]TA[hArg][Phe(F5)]H[Orn]VL[Abu]QLSAH[Orn]LLQDI[Nle][dR][hArg]-NH2 (reading uncertain) [MIA-690] | 530 pM | – | –
